{
  "source": "FireProtDB (doi:10.1139/o86-132)",
  "settings": "Aspergillus oryzae (strain ATCC 42149 / RIB 40), pH 7, 25 °C, GdnHCl, CD, cacodylate 0.013 M, reversible: yes, whole UniProt chain shown",
  "data": [
    {"protein": "Guanyl-specific ribonuclease T1 wild type, P00651 (protein) MMYSKLLTLTTLLLPTALALPSLVERACDYTCGSNCYSSSDVSTAQAAGYQLHEDGETVGSNSYPHKYNNYEGFDFSVSSPYYEWPILSSGDVYSGGSPGADRVVFNENNQLAGVITHTGASGNNFVECT", "values": [
      {"measurement": "denaturant m value", "setting": "(NH4)2SO4 0.15 M", "result": 2.85, "unit": "kcal/mol/M"},
      {"measurement": "denaturant midpoint (higher = more stable)", "setting": "(NH4)2SO4 0.15 M", "result": 3.16, "unit": "M"},
      {"measurement": "unfolding free energy", "setting": "(NH4)2SO4 0.15 M", "result": 9.6, "unit": "kcal/mol"},
      {"measurement": "denaturant m value", "setting": "(NH4)2SO4 0.30 M", "result": 2.9, "unit": "kcal/mol/M"},
      {"measurement": "denaturant midpoint (higher = more stable)", "setting": "(NH4)2SO4 0.30 M", "result": 3.37, "unit": "M"},
      {"measurement": "unfolding free energy", "setting": "(NH4)2SO4 0.30 M", "result": 10.3, "unit": "kcal/mol"},
      {"measurement": "denaturant m value", "setting": "CsCl 0.49 M", "result": 3.18, "unit": "kcal/mol/M"},
      {"measurement": "denaturant midpoint (higher = more stable)", "setting": "CsCl 0.49 M", "result": 2.81, "unit": "M"},
      {"measurement": "unfolding free energy", "setting": "CsCl 0.49 M", "result": 8.9, "unit": "kcal/mol"},
      {"measurement": "denaturant m value", "setting": "KCl 0.1 M", "result": 3.04, "unit": "kcal/mol/M"},
      {"measurement": "denaturant midpoint (higher = more stable)", "setting": "KCl 0.1 M", "result": 2.9, "unit": "M"},
      {"measurement": "unfolding free energy", "setting": "KCl 0.1 M", "result": 8.8, "unit": "kcal/mol"},
      {"measurement": "denaturant m value", "setting": "Li2SO4 0.20 M", "result": 2.82, "unit": "kcal/mol/M"},
      {"measurement": "denaturant midpoint (higher = more stable)", "setting": "Li2SO4 0.20 M", "result": 3.16, "unit": "M"},
      {"measurement": "unfolding free energy", "setting": "Li2SO4 0.20 M", "result": 9.6, "unit": "kcal/mol"},
      {"measurement": "denaturant m value", "setting": "Li2SO4 0.40 M", "result": 2.82, "unit": "kcal/mol/M"},
      {"measurement": "denaturant midpoint (higher = more stable)", "setting": "Li2SO4 0.40 M", "result": 3.35, "unit": "M"},
      {"measurement": "unfolding free energy", "setting": "Li2SO4 0.40 M", "result": 10.2, "unit": "kcal/mol"},
      {"measurement": "denaturant m value", "setting": "LiBr 0.76 M", "result": 3.14, "unit": "kcal/mol/M"},
      {"measurement": "denaturant midpoint (higher = more stable)", "setting": "LiBr 0.76 M", "result": 2.15, "unit": "M"},
      {"measurement": "unfolding free energy", "setting": "LiBr 0.76 M", "result": 6.55, "unit": "kcal/mol"},
      {"measurement": "denaturant m value", "setting": "LiBr 1.52 M", "result": 3.41, "unit": "kcal/mol/M"},
      {"measurement": "denaturant midpoint (higher = more stable)", "setting": "LiBr 1.52 M", "result": 1.48, "unit": "M"},
      {"measurement": "unfolding free energy", "setting": "LiBr 1.52 M", "result": 4.51, "unit": "kcal/mol"},
      {"measurement": "denaturant m value", "setting": "LiCi 0.50 M", "result": 2.71, "unit": "kcal/mol/M"},
      {"measurement": "denaturant midpoint (higher = more stable)", "setting": "LiCi 0.50 M", "result": 2.75, "unit": "M"},
      {"measurement": "unfolding free energy", "setting": "LiCi 0.50 M", "result": 8.36, "unit": "kcal/mol"},
      {"measurement": "denaturant m value", "setting": "LiCi 0.99 M", "result": 3.13, "unit": "kcal/mol/M"},
      {"measurement": "denaturant midpoint (higher = more stable)", "setting": "LiCi 0.99 M", "result": 2.57, "unit": "M"},
      {"measurement": "unfolding free energy", "setting": "LiCi 0.99 M", "result": 7.8, "unit": "kcal/mol"},
      {"measurement": "denaturant m value", "setting": "LiSCN 0.09 M", "result": 3.05, "unit": "kcal/mol/M"},
      {"measurement": "denaturant midpoint (higher = more stable)", "setting": "LiSCN 0.09 M", "result": 2.72, "unit": "M"},
      {"measurement": "unfolding free energy", "setting": "LiSCN 0.09 M", "result": 8.27, "unit": "kcal/mol"},
      {"measurement": "denaturant m value", "setting": "LiSCN 0.34 M", "result": 2.87, "unit": "kcal/mol/M"},
      {"measurement": "denaturant midpoint (higher = more stable)", "setting": "LiSCN 0.34 M", "result": 2.06, "unit": "M"},
      {"measurement": "unfolding free energy", "setting": "LiSCN 0.34 M", "result": 6.25, "unit": "kcal/mol"},
      {"measurement": "denaturant m value", "setting": "LiSCN 0.69 M", "result": 3.08, "unit": "kcal/mol/M"},
      {"measurement": "denaturant midpoint (higher = more stable)", "setting": "LiSCN 0.69 M", "result": 1.34, "unit": "M"},
      {"measurement": "unfolding free energy", "setting": "LiSCN 0.69 M", "result": 4.08, "unit": "kcal/mol"},
      {"measurement": "denaturant m value", "setting": "NH4Cl 0.45 M", "result": 3.02, "unit": "kcal/mol/M"},
      {"measurement": "denaturant midpoint (higher = more stable)", "setting": "NH4Cl 0.45 M", "result": 2.83, "unit": "M"},
      {"measurement": "unfolding free energy", "setting": "NH4Cl 0.45 M", "result": 8.5, "unit": "kcal/mol"},
      {"measurement": "denaturant m value", "setting": "Na2SO4 0.15 M", "result": 2.83, "unit": "kcal/mol/M"},
      {"measurement": "denaturant midpoint (higher = more stable)", "setting": "Na2SO4 0.15 M", "result": 3.12, "unit": "M"},
      {"measurement": "unfolding free energy", "setting": "Na2SO4 0.15 M", "result": 9.49, "unit": "kcal/mol"},
      {"measurement": "denaturant m value", "setting": "NaBr 0.50 M", "result": 3.42, "unit": "kcal/mol/M"},
      {"measurement": "denaturant midpoint (higher = more stable)", "setting": "NaBr 0.50 M", "result": 2.53, "unit": "M"},
      {"measurement": "unfolding free energy", "setting": "NaBr 0.50 M", "result": 7.7, "unit": "kcal/mol"},
      {"measurement": "denaturant m value", "setting": "NaBr 0.99 M", "result": 2.97, "unit": "kcal/mol/M"},
      {"measurement": "denaturant midpoint (higher = more stable)", "setting": "NaBr 0.99 M", "result": 2.27, "unit": "M"},
      {"measurement": "unfolding free energy", "setting": "NaBr 0.99 M", "result": 6.91, "unit": "kcal/mol"},
      {"measurement": "denaturant m value", "setting": "NaSCN 0.25 M", "result": 3.11, "unit": "kcal/mol/M"},
      {"measurement": "denaturant midpoint (higher = more stable)", "setting": "NaSCN 0.25 M", "result": 2.39, "unit": "M"},
      {"measurement": "unfolding free energy", "setting": "NaSCN 0.25 M", "result": 7.27, "unit": "kcal/mol"},
      {"measurement": "denaturant m value", "setting": "NaSCN 0.49 M", "result": 2.93, "unit": "kcal/mol/M"},
      {"measurement": "denaturant midpoint (higher = more stable)", "setting": "NaSCN 0.49 M", "result": 1.91, "unit": "M"},
      {"measurement": "unfolding free energy", "setting": "NaSCN 0.49 M", "result": 5.8, "unit": "kcal/mol"},
      {"measurement": "denaturant m value", "setting": "RbCl 0.50 M", "result": 2.89, "unit": "kcal/mol/M"},
      {"measurement": "denaturant midpoint (higher = more stable)", "setting": "RbCl 0.50 M", "result": 2.89, "unit": "M"},
      {"measurement": "unfolding free energy", "setting": "RbCl 0.50 M", "result": 8.4, "unit": "kcal/mol"}
    ]}
  ]
}
